Assay results: PMC5057102, “Fabrication of an antibody-aptamer sandwich assay for electrochemical evaluation of levels of β-amyloid oligomers”

Key:
[1] = biological target: Amyloid beta 1-42 oligomers (UniProt P05067 672-713); assay: electrochemical antibody-aptamer sandwich (DPV); 20 nM, antibody capture; 0.1 M phosphate buffer (Na2HPO4/NaH2PO4) pH 7.4; incubations at 37 C (Abeta 60 min, aptamer-Au-Th 3 h); 1% BSA block; conditions: label: gold nanoparticle, thionine
[2] = biological target: Amyloid beta 1-40 oligomers (UniProt P05067 672-711); assay: electrochemical antibody-aptamer sandwich (DPV); 20 nM, antibody capture; response similar to 1-42 oligomers; 0.1 M phosphate buffer (Na2HPO4/NaH2PO4) pH 7.4; incubations at 37 C (Abeta 60 min, aptamer-Au-Th 3 h); 1% BSA block; conditions: label: gold nanoparticle, thionine
Chain of Amyloid beta 1-40 oligomers (P05067 672-711): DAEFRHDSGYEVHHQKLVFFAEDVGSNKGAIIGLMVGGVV

Chain of Amyloid beta 1-42 oligomers (P05067 672-713): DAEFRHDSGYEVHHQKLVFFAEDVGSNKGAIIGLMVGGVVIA

Q: Does GCCTGTGTTGGGGCGGGTGCG (ssDNA, 5'-HS (thiol)) [Abeta oligomer aptamer (thiolated, on AuNP with thionine)] bind [1]?
A: Result: binds

Q: Does GCCTGTGTTGGGGCGGGTGCG (ssDNA, 5'-HS (thiol)) [Abeta oligomer aptamer (thiolated, on AuNP with thionine)] bind [2]?
A: Result: binds
